Here are results for five molecules from US20230012273A1 (Boehringer Ingelheim, published 2023).

The chains are these.
T1: cynoSIRPα (EGM_02252), Extracellular Domain + His-Tag (cynomolgus monkey)
T1 construct: also called CySIRPα EGM_02252; not shown: His-Tag
T1 chain: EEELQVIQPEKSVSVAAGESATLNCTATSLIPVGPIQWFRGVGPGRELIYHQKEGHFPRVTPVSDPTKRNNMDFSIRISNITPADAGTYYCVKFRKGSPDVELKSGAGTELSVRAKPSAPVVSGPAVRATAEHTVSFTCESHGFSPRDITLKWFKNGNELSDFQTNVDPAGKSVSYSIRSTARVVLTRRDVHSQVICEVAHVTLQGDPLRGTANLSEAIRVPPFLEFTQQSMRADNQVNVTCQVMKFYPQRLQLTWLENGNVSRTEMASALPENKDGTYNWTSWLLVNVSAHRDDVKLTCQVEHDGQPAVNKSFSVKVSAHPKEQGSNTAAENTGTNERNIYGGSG

T2: cynoSIRPα (NP_001271679), Extracellular Domain + His-Tag (cynomolgus monkey)
T2 construct: also called CySIRPα NP_001271679; not shown: His-Tag
T2 chain: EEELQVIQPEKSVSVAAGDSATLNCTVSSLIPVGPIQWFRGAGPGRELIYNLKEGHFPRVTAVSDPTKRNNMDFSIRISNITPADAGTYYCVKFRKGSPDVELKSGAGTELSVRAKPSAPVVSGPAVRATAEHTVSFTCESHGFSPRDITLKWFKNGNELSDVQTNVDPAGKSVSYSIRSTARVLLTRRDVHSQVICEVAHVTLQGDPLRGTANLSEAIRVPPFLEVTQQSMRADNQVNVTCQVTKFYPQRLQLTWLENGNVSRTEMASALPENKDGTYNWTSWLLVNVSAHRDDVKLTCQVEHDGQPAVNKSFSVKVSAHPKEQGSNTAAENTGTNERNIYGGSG

T3: cynoSIRPα (XP_015313155), Extracellular Domain + His-Tag (cynomolgus monkey)
T3 construct: also called CySIRPα XP_015313155; not shown: His-Tag
T3 chain: T2 chain with A62P, V163F, L185V

B1: Antibody E13 (antibody, human IgG1, kappa, L234A L235A, V domains shown)
VH: QVQLQESGPGLVRPSETLSLTCTVSGGSIRNYYWSWIRQPPGKGLEWIGFIYYTGRTFYNPSLKSRVTISLDMSINQFSLKMTSVTAADTAVYYCARVRAYSGIGLDGTDVWGQGTTVTVSS
VL: DIVMTQSPLSLPVTPGEPASISCKSSQSLLYSNGYAYLDWYLQRPGQSPQLLIYQGSNRASGVPDRFSGSGSGTDFTLKISRVEAEDVGVFYCMQALQTPLTFGGGTKVEIKR
B2: Antibody E15 (antibody, human IgG1, kappa, L234A L235A, V domains shown)
VH: B1 VH
VL: B1 VL with Q55L, F91Y
B3: Antibody E17 (antibody, human IgG1, kappa, L234A L235A, V domains shown)
VH: B1 VH with I48M, Y53D, T54N, I75M
VL: B1 VL with G34A, A36N, Q55L, F91Y
B4: Antibody E14 (antibody, human IgG1, kappa, L234A L235A, V domains shown)
VH: B1 VH with T54N, M73K, I75K
VL: B1 VL with G34A, A36N, Q55L, F91Y
B5: Antibody E16 (antibody, human IgG1, kappa, L234A L235A, V domains shown)
VH: B1 VH with T54N, M73T, I75K
VL: B1 VL with G34A, A36N, Q55L, F91Y

A word on the Kd: it is the concentration at which binding is half-saturated. One may read the koff as the first-order rate constant of dissociation. The term kon denotes the rate constant with which the complex forms.

Where a chain is given by its changes, count along the chain named.

The first test concerns the target T1, cynoSIRPα (EGM_02252), Extracellular …. Kind of test: SPR, antibody captured on Protein A/G, ECD-His analyte. As for the experimental part: The binding kinetics of anti-SIRPα antibodies to various SIRPα analytes are determined by surface plasmon resonance (SPR) using a Biacore 8K+(Cytiva). 1×HBS-EP+(Cytiva) is used as running buffer and for all the dilutions unless stated otherwise. The Series S CM5 sensorchip is activated with a 1:1 mixture of 0.1 M NHS (N-hydroxysuccinimide) and 0.4 M EDC (1-Ethyl-3-(3-dimethylaminopropyl) carbodiimide hydrochloride) for 420 seconds at a flow rate of 10 μl/min and immobilized with Protein A/G (Thermo Scientific, 10 μg/ml in 10 mM acetate pH 4.5) for 420 seconds at a flowrate of 10 μl/min resulting in approximately 3000 RU of Protein A/G on the surface. The sensorchip is then deactivated with 1 M ethanolamine HCl pH 8.5 for 420 seconds at a flowrate of 10 μl/min.
Antibodies (approximately 1 ug/ml) are captured on the Protein A/G surface for 60 seconds at a flowrate of 10 μl/min resulting in capture levels of approximately 240 RU. Dilutions of each SIRP protein (Extracellular Domain+His-Tag, with the concentrations as indicated) are injected as analytes over the captured antibody for 300 seconds of association at a flowrate of 30 μl/min, followed by a dissociation for 600 seconds.
A general note: Surface plasmon resonance follows binding to a sensor surface in real time, without labels.
On to B1, for which the binding result is reported as “no binding (tested: 1000 nM)”.
Consider B2, for which the binding result was “no binding (tested: 1000 nM)”.
Take B3: the binding result is reported as “no binding (tested: 1000 nM)”.
Same read-out and setting: for B4 the value was “no binding (tested: 1000 nM)”; for B5, “no binding (tested: 1000 nM)”.

The target in a further test is T4, Human SIRPαV1 (NP_542970.1), Extracellular Domain + His-Tag (human, UniProt P78324 31-373).
T4 construct: also called huSIRPαV1; hSIRPαV1; not shown: His-Tag
T4 sequence (P78324 other isoform, or with tags, fused parts or gaps): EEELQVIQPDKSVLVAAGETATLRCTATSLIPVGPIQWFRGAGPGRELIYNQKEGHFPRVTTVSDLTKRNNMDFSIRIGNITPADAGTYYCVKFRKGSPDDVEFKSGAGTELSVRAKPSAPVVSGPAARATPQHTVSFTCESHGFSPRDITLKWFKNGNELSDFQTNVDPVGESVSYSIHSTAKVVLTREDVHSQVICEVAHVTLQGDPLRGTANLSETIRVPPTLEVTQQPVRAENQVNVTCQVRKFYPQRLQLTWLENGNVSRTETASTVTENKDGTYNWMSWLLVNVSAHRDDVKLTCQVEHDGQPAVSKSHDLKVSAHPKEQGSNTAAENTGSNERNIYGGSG
Kind of test: SPR, antibody captured on Protein A/G, ECD-His analyte, 1:1 fit. The essentials:
(§1)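 Biacore 8K+ at HBS-EP+, with antibodies (~1 ug/ml) captured on Protein A/G CM5 surface to ~240 RU. SIRPα ECD-His analyte dilutions injected at 30 μl/min for 300 s association, 600 s dissociation.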
For B1, the Kd stood at 1.7 nM, the koff was 0.000671 s⁻¹ and the kon stood at 394000 M⁻¹ s⁻¹.
Consider B2, for which the dissociation constant (Kd) was 1.91 nM, the koff is 0.000802 s⁻¹ and the on-rate (kon) stood at 421000 M⁻¹ s⁻¹.
For the molecule B3, the Kd worked out at 2.36 nM, the koff amounted to 0.000955 s⁻¹ and the kon amounted to 405000 M⁻¹ s⁻¹.
For B4 the same measures were 1.84 nM, 0.000743 s⁻¹ and 403000 M⁻¹ s⁻¹.
B5: the Kd is 2.15 nM, the koff amounted to 0.00106 s⁻¹ and the kon was determined as 490000 M⁻¹ s⁻¹.

The target of the next test is T5, Human SIRPαV2 (CAA71403.1), Extracellular Domain + His-Tag (human, UniProt P78324 31-373).
T5 construct: also called huSIRPαV2; hSIRPαV2; not shown: His-Tag
T5 sequence (P78324 other isoform, or with tags, fused parts or gaps): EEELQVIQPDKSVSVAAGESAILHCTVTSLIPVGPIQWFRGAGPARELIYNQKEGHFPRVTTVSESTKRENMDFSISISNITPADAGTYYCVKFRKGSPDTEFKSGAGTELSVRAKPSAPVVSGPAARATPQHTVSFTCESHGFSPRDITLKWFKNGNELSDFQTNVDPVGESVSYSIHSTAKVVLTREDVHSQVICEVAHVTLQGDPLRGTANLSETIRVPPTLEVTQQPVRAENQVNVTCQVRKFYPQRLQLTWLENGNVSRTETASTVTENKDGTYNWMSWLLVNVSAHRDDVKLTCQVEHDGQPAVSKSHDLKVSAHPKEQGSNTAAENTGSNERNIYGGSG
Described as above. The essentials: as §1
B1: the Kd was determined as 0.69 nM, the koff came to 0.000338 s⁻¹ and the kon is 490000 M⁻¹ s⁻¹.
For B2 the same measures were 0.74 nM, 0.000369 s⁻¹ and 501000 M⁻¹ s⁻¹.
For B3, in that order: 0.8 nM, 0.000405 s⁻¹ and 508000 M⁻¹ s⁻¹.
For B4 the same measures were 1.36 nM, 0.000615 s⁻¹ and 453000 M⁻¹ s⁻¹.
Take B5: the Kd stood at 1.93 nM, the koff was 0.00105 s⁻¹ and the kon was 547000 M⁻¹ s⁻¹.

A further test concerns the target T2, cynoSIRPα (NP_001271679), Extracellular …. The description is as above. Summed up:
as §1
In the case of B1, the Kd is 38.3 nM, the koff was 0.00755 s⁻¹ and the kon was 197000 M⁻¹ s⁻¹.
With B2, the Kd came to 49.4 nM, the koff stood at 0.012 s⁻¹ and the kon is 243000 M⁻¹ s⁻¹.
For B3 the same measures were 44.8 nM, 0.0126 s⁻¹ and 282000 M⁻¹ s⁻¹.
Regarding B4, the Kd stood at 90.7 nM, the off-rate (koff) was 0.0173 s⁻¹ and the kon was 190000 M⁻¹ s⁻¹.
For B5 the same measures were 50 nM, 0.0158 s⁻¹ and 313000 M⁻¹ s⁻¹.

A further test deals with T3, cynoSIRPα (XP_015313155), Extracellular …. Described as above. The essentials: as §1
In the case of B1, the Kd is 37.4 nM, the koff was 0.00711 s⁻¹ and the kon was found to be 190000 M⁻¹ s⁻¹.
On to B2, for which the Kd amounted to 46.2 nM, the koff was found to be 0.0113 s⁻¹ and the kon stood at 245000 M⁻¹ s⁻¹.
For B3, in that order: 43.2 nM, 0.0126 s⁻¹ and 292000 M⁻¹ s⁻¹.
As for B4, the Kd amounted to 86.3 nM, the koff amounted to 0.0173 s⁻¹ and the kon worked out at 200000 M⁻¹ s⁻¹.
With B5, the dissociation constant (Kd) turned out to be 48.8 nM, the koff was 0.0147 s⁻¹ and the kon was determined as 300000 M⁻¹ s⁻¹.
